Patent publication US20260234655A1, “Nuclear Targeted DNA Delivery and Compositions for Use in Practicing the Same” (Seawolf Therapeutics, Inc., priority 2022, published 2026)

Tested on: mouse liver
Assay: Pooled DTS pDNA-LNP i.v. in mice; mRNA abundance in liver by RNA-seq
Assay type: in vivo
Settings: 1 d post-dose, pDNA-LNP 0.66 mg/kg i.v.
Procedure: LNP formulation. LNPs encapsulating nucleic acid payloads were prepared by mixing an organic solution of lipids with an aqueous solution of nucleic acid (e.g., DNA only, mRNA only, or DNA/mRNA mixtures) as described in Prud′homme et al. (J Pharm Sci 2018). Briefly, the lipidic excipients mixture (ionizable lipid, helper lipid, cholesterol, PEG-lipid and potentially other targeting moieties) is dissolved in an organic solvent. An aqueous solution of the nucleic acid is prepared in a low pH buffer of range pH 3.0-4.0. The lipid mixture is then mixed with the aqueous nucleic acid solution at a flow ratio of 1:3 (V/V) using a commercially available mixer device. […] Particle size is determined by dynamic light scattering (Horiba nanoPartica SZ-100). Encapsulation efficiency is calculated by using Quant-it RiboGreen assay kit.
Quantification of mRNA abundance from pooled DTS screens. […] The PCR amplified cDNA was then library prepped (NEBNext library prep for Illumina) and sequenced on an Illumina Miseq (2×150 bp reads). Counts for each UMI were translated into the corresponding DTS using the UMI/Barcode registry and changes in abundance of each DTS were statistically analyzed using a custom R script. The log 2 fold change is calculated by comparing the RNA level in the pool vs. its expected abundance, which is derived from the abundance in the corresponding input DNA pool. […]

B1: NFKB: benchmark DTS with NF-κB binding sites in pentameric repeat (SEQ ID NO: 140) (nucleic acid)
DNA: GGGACTTTCCAGATTACTACTGATAGGGACTTTCCAGATTACTACTGATAGGGACTTTCCAGATTACTACTGATAGGGACTTTCCAGATTACTACTGATAGGGACTTTCC
modifications: DNA nuclear targeting sequence within DNA cargo construct, further chemistry not given here
- mRNA abundance in mouse liver compared to Spacer negative control: largest and most statistically significant increase
